Assay results taken from publication PMC2588538, “Structure of Reovirus σ1 in Complex with Its Receptor Junctional Adhesion Molecule-A” (PLoS Pathogens, 2008).

B1: σ1 of reovirus strain rsT3D-σ1T249I (parent), on purified virions [mammalian orthoreovirus, strain type 3 Dearing (T3D)] / GST-JAM-A ectodomain fusion protein [not stated] (parent complex)
chain 1: MDPRLREEVVRLIIALTSDNGASLSKGLESRVSALEKTSQIHSDTILRITQGLDDANKRIIALEQSRDDLVASVSDAQLAISRLESSIGALQTVVNGLDSSVTQLGARVGQLETGLAELRVDHDNLVARVDTAERNIGSLTTELSTLTLRVTSIQADFESRISTLERTAVTSAGAPLSIRNNRMTMGLNDGLTLSGNNLAIRLPGNTGLNIQNGGLQFRFNTDQFQIVNNNLTLKTTVFDSINSRIGAIEQSYVASAVTPLRLNSSTKVLDMLIDSSTLEINSSGQLTVRSTSPNLRYPIADVSGGIGMSPNYRFRQSMWIGIVSYSGSGLNWRVQVNSDIFIVDDYIHICLPAFDGFSIADGGDLSLNFVTGLLPPLLTGDTEPAFHNDVVTYGAQTVAIGLSSGGAPQYMSKNLWVEQWQDGVLRLRVEGGGSITHSNSKWPAMTVSYPRSFT
chain 2: SVTVHSSEPEVRIPENNPVKLSCAYSGFSSPRVEWKFDQGDTTRLVCYNNKITASYEDRVTFLPTGITFKSVTREDTGTYTCMVSEEGGNSYGEVKVKLIVLVPPSKPTVNIPSSATIGNRAVLTCSEQDGSPPSEYTWFKDGIVMPTNPKSTRAFSNSSYVLNPTTGELVFDPLSASDTGEYSCEARNGYGTPMTSNAVRMEAVERNVGV

Variants of: B1
Test: SPR; 8×1012 (orange) particles/ml virus; GST-JAM-A captured on biosensor surface; parent: 98; read off a plot
With chain 1 N369A the response was about 25 RU.
